# Laboratory results published in US11466067B2 (priority 2019, dated 2022).
# How the values were obtained:
# [1] = test system: cells of the Lamina propria; assay: Cell targeting in the Lamina propria after intraluminal injection (immunofluorescence); assay type: in vivo, Wistar rats
# Protocol: Rats were anesthetized using inhaled isoflurane and euthanized by inhaled CO2.
# Experiments were initiated by making an approximately 4 cm abdominal incision to access the mid-jejunum region of the small intestine. After performing the incision, 50 μl of a prepared solution of the IL-10 delivery construct (typically at about 1 mg/mL) was injected into the intestinal lumen of an area devoid of foodstuffs through a 27-gauge needle using a 1 mL syringe. The mesentery adjacent to the site of injection was labeled with a marker and the intestine was returned to the abdominal cavity, with the incision being closed with clamps.
# At specific times, the injected intestine was retrieved, surgically isolated and flushed with a 4° C. isotonic PBS. Washed, excised samples were fixed (4% paraformaldehyde in PBS) overnight at 4° C. before dehydration through graded series of ethanol/water solutions and overnight incubation in chloroform.
# Dehydrated tissues were immersed in wax, sectioned, and mounted on poylysine slides and processed for antigen retrieval using sodium citrate. Afterward, sections were permeabilised with 0.2% Triton-X100 in PBS prior to thrice washing in PBS and blocking with 2% BSA+2% serum of the animal the secondary antibodies have been raised. Primary antibodies were diluted in 1% BSA, 0.1% Triton-X100 in PBS and incubated overnight at 4° C. in humidified air. Fluorescent secondary antibodies were diluted in 1% BSA, 0.1% Triton-X100 in PBS and incubated for 2 h at RT prior to processing for confocal microscopy. On occasion, an approximately 1 cm section of intestine at the injection site was collected for biochemical studies.
# Proteins for specific cell types were examined by immuno-fluorescence using confocal microscopy. The IL-10 delivery construct components (the carrier, also referred to herein as “cholix,” and IL-10) were followed separately with either a polyclonal antibody (pAb) or monoclonal antibody (mAb) to IL-10 or a pAb or mAb to the carrier domain to allow co-localization with pAb or mAbs available (TABLE 46).
# [2] = test system: IL-1Ra; assay: Single oral capsule dose in NHP: plasma IL-1Ra; assay type: in vivo, Macaca fascicularis
# Protocol: The purpose of the IL-1Ra assay was to measure endogenous IL-1Ra in NHP plasma. The antibody pair in this sandwich immunoassay reacted with both human and NHP IL-1Ra. Samples were quantitated using an 8-point standard curve prepared from a human IL-1Ra calibrator (ranging from 5.5-4021 pg/mL, plus 0 pg/mL). Biotinylated anti-NHP IL-1Ra capture antibody was added to a MSD Small Spot Streptavidin plate and incubated for an hour at RT with shaking. Controls that represent low ([…]), mid ([…]) and high concentrations (3245 pg/mL) were prepared in pooled plasma, Standards (Calibrator 9 Blend) were prepared in Diluent 43 (MSD Cat No R50AG), and samples diluted 10 fold in Diluent 43. Standards, controls and diluted samples were added to the assay plate, and the plate incubated for 2 hours at room temperature with shaking. The plate was washed 3 times with PBST, and 1×SULFO TAG anti-IL-1Ra Antibody added to the plate. The plate was incubated for 1 hour at room temperature with shaking. Following a wash step, 2×MSD Read buffer was added to the wells of the plate, and the plate read using the MSD Sector Imager 600 plate reader. The lower limit of detection of each analyte is defined as 2.5 standard deviation above background.
# IL-10 delivery construct dosing at multiple fixed doses in non-naïve adult male Macaca fascicularis was conducted by Valley Biosystems (West Sacramento, Calif.). […] Dosing groups are described in TABLE 45.
# Blood samples were collected in K2EDTA tubes from each animal pre-dose and at 0.5, 1, 2, 3, 4, 5, 6, 7, 8, and 24 hours post-dose. Animals were returned to home cages following the 2-hour sample collection. Following physical restraint, blood samples were collected via direct venous puncture using a cephalic, femoral or saphenous vein, which were processed to plasma and stored frozen at −60° C. until shipment.
# [3] = Process trains with S-650F cation exchange: yield, recovery, purity, endotoxin
# Protocol: Refolding was carried out at 4° C. in a refolding solution containing 1 mM reduced glutathione, 0.5 mM oxidized glutathione, 1M Arginine-HCl, 250 mM sucrose, 100 mM Tris pH 8.5 at 4° C., and 2 mM EDTA. […] Buffer A for the CHT bind/elute step in Table 56 may also comprise 25 mM Tris, pH7.5, 300 mM NaCl, 5.0 mM NaPi, 0.5 mM CaCl2. Columns used are described in Table 58.
# The yield, recovery, and purity of the IL-10 delivery construct was assess after each step, and after each process train.
# [4] = PK/PD by oral, subcutaneous, intravenous route in NHP; assay type: in vivo, Macaca fascicularis
# Text: For oral administration the IL-10 delivery construct was formulated in size 0 enteric coated capsules. For intravenous or subcutaneous administration it was formulated as a liquid in DS lyo formulation.
# [5] = test system: colonic markers; assay: Colonic sigmoidoscopy spray in NHP: inflammatory and tissue repair markers; assay type: in vivo, Macaca fascicularis; settings: 1, 3, 10 mg
# Protocol: To assess the effect of an IL-10 delivery construct on pro-inflammatory and anti-inflammatory markers the IL-10 delivery construct was delivered to male Macaca fascicularis monkeys (about 5 to about 8 kg) by colonic sigmoidoscopy with a spray nozzle. The IL-10 delivery construct was administered at doses of 1 mg, 3 mg, and 10 mg formulated in albumin.
# [6] = test system: enterocytes; assay: Vesicular trafficking co-localization (Rab7, Rab11, LMAN1, LAMP1) in jejunum; assay type: in vivo, rat
# Text: The timing of LMAN1 redistribution to the basal compartment coincides with the presence of hIL-10 being ultimately detected in non-polarized cells within the Lamina propria where it was not associated with LMAN1.
# Ultimately, the delivery construct is delivered to lysosome-like structures within a large fraction of cells within the Lamina propria, an outcome that would limit its systemic distribution following A-B transcytosis.
# [7] = test system: circulating cytokines, chemokines, growth factors; assay type: in vivo, mice
# [8] = Control process train: Capto Q, CHT (Linear elution), based on historical data
# [9] = PT1: Capto Q, S-650F, CHT (FT mode)
# [10] = PT2: Capto Q, CHT (Step elution), S-650F
# [11] = PT3: S-650F, Capto Q, CHT (FT mode)
molecule,measurement,setting,value
"IL-10 delivery construct: recombinant homodimeric fusion protein: N-terminal methionine, cholix386 domain, polyGlySer spacer, recombinant human IL-10 (protein, homodimer) MVEEALNIFDECRSPCSLTPEPGKPIQSKLSIPSDVVLDEGVLYYSMTINDEQNDIKDEDKGESIITIGEFATVRATRHYVNQDAPFGVIHLDITTENGTKTYSYNRKEGEFAINWLVPIGEDSPASIKISVDELDQQRNIIEVPKLYSIDLDNQTLEQWKTQGNVSFSVTRPEHNIAISWPSVSYKAAQKEGSRHKRWAHWHTGLALCWLVPMDAIYNYITQQNCTLGDNWFGGSYETVAGTPKVITVKQGIEQKPVEQRIHFSKGNAMSALAAHRVCGVPLETLARSRKPRDLTDDLSCAYQAQNIVSLFVATRILFSHLDSVFTLNLDEQEPEVAERLSDLRRINENNPGMVTQVLTVARQIYNDYVTHHPGLTPEQTSAGAQAGGGGSGGGGSGGGGSPGQGTQSENSCTHFPGNLPNMLRDLRDAFSRVKTFFQMKDQLDNLLLKESLLEDFKGYLGCQALSEMIQFYLEEVMPQAENQDPDIKAHVNSLGENLKTLRLRLRRCHRFLPCENKSKAVEQVKNAFNKLQEKGIYKAMSEFDIFINYIEAYMTMKIRN",time by which extensive amount reached the Lamina propria,"[1]; 1-minute pulse, intraluminal injection",≤ 15 min
same,co-localization with LAMP1-positive lysosomes in enterocytes,[1]; 15-minute time course,little or no co-localization
same,co-localization with CD3 antigen (T lymphocytes),[1]; Lamina propria,striking co-localizations
same,co-localization with CD19-positive cells (B-lymphocytes),[1]; Lamina propria,failed to co-localize
same,co-localization with CD34-positive cells (endothelia),[1]; Lamina propria,failed to co-localize
same,co-localization with CD11c antigen (dendritic cells),"[1]; Lamina propria, rat jejunum",did not co-localize with CD11c antigen to any striking extent
same,time of plasma IL-1Ra Cmax,[2]; 82 mg,3 hours post-dose
same,dose response of IL-1Ra Cmax,"[2]; 1, 4 and 20.5 mg",No dose response relationship
same,time by which plasma IL-1Ra returned to baseline,[2]; all dose groups,≤ 24 hour post-dose
same,Endotoxin,[3]; [8],*8 EU/mg
same,Purity,[3]; [8],*85%
same,Yield,"[3]; Control: Capto Q ImpRes, CHT gradient B/E",68 mg
same,Endotoxin,[3]; [9],8.9 EU/mg
same,Purity,[3]; [9],92%
same,Yield,"[3]; PT2: Capto Q ImpRes, CHT step B/E 80 mM NaPi, S-650F",26 mg
same,Endotoxin,[3]; [10],5 EU/mg
same,Purity,[3]; [10],91%
same,Endotoxin,[3]; [11],0.4 EU/mg
same,Purity,[3]; [11],96%
same,systemic IL-10 after oral vs subcutaneous or intravenous administration,[4]; oral 1 mg or 5 mgs,minimal systemic levels of IL-10
same,IL-1Ra/IL-10 ratio,[4]; subcutaneous 0.2 mg/kg or intravenous 0.05 mg/kg,minimal effect
same,expression of anti-inflammatory markers,[5],increased expression
same,expression of pro-inflammatory markers,[5],decreased expression
same,expression of tissue repair and wound healing biomarkers,[5],increased expression
same,co-localization with LAMP1 in polarized enterocytes,[6]; 1-15 min post ILI,Limited LAMP1/delivery construct co-localizations
same,co-localization with LMAN1,[6]; 1-15 min post ILI,co-localized with redistributing LMAN1
same,co-localization with LAMP1 in non-polarized cells of Lamina propria,[6]; 10 min and 15 min post ILI,extensive LAMP1/delivery construct co-localizations
same,co-localization with Rab7+ vesicles,[6]; enterocytes,predominantly in the apical vesicular compartment
same,co-localization with Rab11+ vesicles,[6]; enterocytes,mostly in the basal vesicular compartment
same,plasma IL-31,[7]; 0.3 mg/kg,near-base line levels
same,plasma TGF-β relative to Vehicle,[7]; 3.0 mg/kg,reduced
same,plasma IL-3,[7]; 9.0 mg/kg,near-base line levels
same,plasma IL-4,[7]; 9.0 mg/kg,near-base line levels
same,production of IL-12 and IL-17,[7]; 9.0 mg/kg,prevented the production
same,plasma IL-28,[7]; 3.0 and 9.0 mg/kg,near-base line levels
same,plasma MCSF,[7]; highest dose (9.0 mg/kg),reduced
same,"oxazolone-induced changes in LIX, LIF, IP10","[7]; mouse, in vivo",mitigated
same,oxazolone-induced increase in plasma GCSF/CSF3,"[7]; mouse, in vivo",attenuated
same,plasma IL-13 and IL-15 vs Vehicle,"[7]; mouse, in vivo",trend towards an IL-10 delivery construct-mediated decrease
